test: soluble on expression in E. coli; label from the status in PepcDB or PDB records

Soluble on expression in E. coli, not soluble:
PNSPINKLVLNDIGPQIPIHGLRRIAKYAGKAPDFKSLEEAKQHFKASYADFGITNEKQWDIFTKNSVEQRGPNLYVTKMDPAIKKSKSILQIISEFFRHPHKALEGIFYDINLWSIWKQIKCPVIVIHGVNSDILTSEIITQMKKTHALTEVYEVENAGHAPALLDLTVHQRIEDWLATH
EKIAHMAVSRGNGARLLVDGEATFAALFAALDAARHYVLIQFYIVRDDDLGLELRDRLIAAAQRGVKVRFLTDAIGSYGLSDNYIEDLRAAGIDIANPRKQRGPNTRFQVNYRNHRKTVVVDGQTGFIGGHNVGVEYLGQDPVMGRWRDTHVQITGPSVLQLQLVFAEDWHWARGEDLLDLLSWETRLDPQDADALIVATGPGDRTESGAMM
MEEQNNNQLQIELKEEVAQGTYANLAIITHSSSEFILDFVRVMPGVPKAGVQSRIIVAPEHAKRLLRALEDNIAKYERAFGPIRISEESPMPPLSVVKGEA
MTVIALRHLGPAERKSFARHLAGGDFPGKGAWDDGTVVLDRVLDGLGDEAGRALIEGALAKASRMVVVTLGGEAAARWTPEVLGPAFVYLLGEAIDADSPAVALAFLDGPGRPRLFAPRFSVMVPVYNHRDLIGACLDSIAAQSWPLWEAVVVDDGSTDGVATLLTERAAADPRLRWSSQANGGTGAALNACLAMAREEWIAWLSSDDLFAPDKLAAHAALLRRDGLAPAFHHTAVIRRNDAGEEQVVAPLGPLMTGSAGLRRLAMTSVNLIQGISIVVHRDLFAQTAGFDPRNRFTQDYAMWVRLMERTDPVYLPLVTAVTRVGAAQTTARHYQRTRAEAIAAILGALRDFSAGAPDDREARLEAVAALVMLASSPHGFLARYGLQGWYVARAMGLAAEAKVLGATFADVSARLGPWSVGHIHDPQAMGHLAMIESVFREDKAAAPIDPFRILTRMLISPTIPADLAEAITGFLRGDLPQPLEHHHHHH
MSRGGKGGDGDTRGGGGENGNQNNKGGNDEGGNEIEVPSMEELDGLADKIADEFVSQGMKIYQTLDPETRPYPDEYREGLRSQVEELPEKFKEFYTPGPGEFTAKLDLIDELTRKLDTQAGDFNTGEISGHVHDAMDNMGEWEGALSISFRKGYLDPLYEGIIPNHGRVLALLHDNFQAMRDIYAEGRKSLKKIGEDGLSAMEQADDVDGAAVVTALTVLAAAFGLGFAGLAAVPGIATAAGVAGAAVAGGLAVASDQAPEPEEIPLAGSSAEDVLVNIYDALSKLEDDILTKEAELIDTILRGCDETLELVGDTTENSMLVPKMPDLVGTALDDYHQISEGLNQFD
MAHHHHHHMEDKLDFTKLRDPFDMDEINRKLQEKVADDDPVQKAMPDPMDPKFRAPLRCSACGAVIEHAVRLLRPIIERQSERAARSGGVLPADALPKEYEMVDIFENLCGEVGRLYGLEVEKDKKRPTLRFSKSFGVSRLQGAWMPSFLTSTCEGVLDVEGEEKLAAMILGVARSEAEAGRGKVISMNPDQGIVDKVREMVCTKWEESAKGCDAYGVAIDPRETDNDDGAEEAASDL
MAHHHHHHMDSMPPLSSPCLVEQEARQVPAGCFTRAVYALHSTDNEQTETAALTVRKLIKEEDQGMMRGAASSQIPLKRKGSKTNSAKSKYGKSGKLGRSSVVSWNLKSAPKITKAAGVTSANNNENREYVSPIVWCPVTPLMDNIYRSKWRQPMGRASSQAIDNEKNICIDETNVGENDLCMCKDVEAQFVLRGGERIYTLHYVTPLSMKRRETNEENSMCYGVLPVIRICVNPPVTP
MNSPLPDVALTEVSSALIALDWVGMQGVEVPLTLGEQGATHPVHAYADLQVDLTDPSVKGIHMSRLYRLLDGFAEHQVLTPETLSALLEAMVESHVDCHSSGARITLTFNLLCRRPALVTEGLSGWKSYPVKLEAVWRAGRLCLDVSADITYSSTCPCSAALSRQLLEEAFVARFGRQSFVDPMQVAAWLRENASYATPHSQRSVATVQVRVAEQATEMGLMALIDTVEQALGTPVQTAVKRADEQAFARLNGQNLMYVEDAARKIQQALEGRYPASSVSVRHFESLHPHDAAAQTSSYLS
MAHHHHHHMPSDRVPSGDGFNNPYGNTTLVGNWLEDRLQQRIVHKRRGGAAATWCAQGIFEDPAVTMARHPAEAQAALLHSTYDVDYGHRPGRTQRTASGGVDNSAAASTLMRGSKHNANAAGPGSASSTAKGGIDKVLLFSIDPVADPAAPLPLSTNADTYGAFYYGNDNGSVDNNGARHAGSATGATTSSPADQGDGGATAPPADADRNLYDSVSRAVAAAAAPSSSFRMPRAPMQRGANADATFSSSPVPRRHMLSLGVATTSTFGHTGWTLASSSATSAADHVGAAPWRPLQRHRLPNKDSMDDERWCSSKQAADTPVEHFTLQQRLPPVRM
MSLEQELKLLFLRAHQRALSSLQFTEEAVDFLISCADGDARRLLNLLEQTKTACLTIKTAVVDVELLHNVIVQNSRRFDKGGEAFYDQISALHKSVRGSNPDAALYWLCRMLDGGVDPYYLARRIIRMSWEDIGLADPKAIQIANDAAATYERLGSPEGELALAQAVIYLSVAAKSNAGYVAFNQAMEFIKRDKSREVPIHLRNAPTQLMKKLGYGHEYRYAHDEPHGYAAGECYLPEGMPEVNWYNPVQRGLETKIAEKLAFLRQLDKDVKKEGHHHHHH
MGSDKIHHHHHHMTTTYPDFLGNSSLQTDTEHWEMEGGAQEVSVTYVLDTSVLLSDPLSLTRFAEHDVVLPIVVITELEAKRHHPDLGFFARQALRMLDELREIHGDLSKPLPIGDEGGHIHVELNHQNTGSLPVGFRLGDNDTRILAVAKNLQEEGHNVVLVSKDLPMRIKASASGIAAQEYRAALARDRGYTGMTHANITDDQLSELYDTGEVRIEELEKLPVNHGFTLKSNSGSALGRMNSDKIIELVPGDQQVFGISGRSAEQRVAIDLLNDDAVGIVSIGGPAGTGKSALALCAGLEAVMERRIQRKIIVFRPLFAVGGQELGYLPGDQEEKMGPWAQAVFDTLSSMVSQNIIDEALSRGLIEVLPLTHIRGRSLHDAFVIVDEAQSLERNVLLTMLSRIGQNSRVVLTHDVAQRDNLRVGRYDGIVSVVEALKDHELFGHITLQRSERSRIAELVTQVLDAPSL
MGSDKIHHHHHHMHTFLASSSMQLSVPPNHFQSMKIVALGDSLIYGFGDPEKGGWIEQLRRWWMLPDSAGHVLYNLGVRGDRTQQVAQRLEVEFRHRGELRNRVPDLIILSVGVNDSARLARPDGRSYTDFTLFEKEIATLLDLAQQLCPVLFVGMVPVDEAKMPFLDCFYYNHVDQYRYKEATRLACTKRQIPYLDIFEKWMERGENWRLKRLSEDGLHPNTLGYQALLEDVINWDAIHSVGFANAAYHSQFNYHLKQS

Soluble on expression in E. coli, soluble:
MSLKWSAIPFQTLYRSIESGEFDFDLFKEVLPDLQNLNLNTDKLKNNASRSQLEKGEIELSDGSTFKVNQEFIFEAISLSDELNLDEIVACELILSGDTTANNGKVQYFLRRQYILQIVSFIVNCFHEDTELYQELIKNGALVSNILSAFKFIHTQLSEIKQQINKAQILENYNALFQQNIKFRRDFLLREYDILSQILYGLVDKGAIMKNKDFILSLLHHVSELDSNDFFIIYYTPAFFHLFASLRVLPDADVKLLHSQFMKDLKDDSIYTKPVKVALIFIFFAYFIGWCKEDPKRRADTMDFKTDVDEPMTSAVELGAIEQILIFAADTSIVEQDKSMELFYDIRSLLERHIPRLIPKQLLDDEKIFSQTTNSTYNPASATDNMSGRGLWNPSYPGMMSTTGTARLNSMPNNVNEYSYTTIVLSDQTQEFFLSSFDDVLQTIITDCAFLLTKIKDAEEDSLLSGEDLTLDDISLKADLERFFLSIYFFYASRPEYSCTFWSDKESNAYGFIEWCSRCNDNLMRSCFYLMVSSLSFGPENALNVYHYFGENSSISWKNIAQCLSDYTKKISNFNSSLHKRQQFSESTHNDIDSTAVALEEGLNEEAVIFLSSLLTLVGSVTYQVDEDVKSSLSKVFSDVLFEFTKINTPLVGAAFKVISNLVPKLESSRTKFWSFLDSLIFKDSSLNYSSESYRNAFTNVLTKYSDVLGFLQLFHNLISIHSRENNSEYMVFGKLAFPTRLGQGYRKVGIWPYFDYIFNDILAHVDQIVDIRNKRAVQLPILKIIYTGLCSFDYSVILNSIPAAANLDALVDCENFFNYVQECPAIPIFNYIFTEKIYKSIFNVVDVGVDQLSIELEGGKNQAELLQLAVKIINKVLDYQETYVEELFPIVKKHGKTDYFLPKNYSLHGLRSFYDAIFFNIPLVAHLGLYVGVDDQILATNSLRILAKLSERSNGSVASLSEGHHHHHH
MSETELRKRQAQFTRELHGDDIGKKTGLSALMSKNNSAQKEAVQKYLRNWDGRTDKDAEERRLEDYNEATHSYYNVVTDFYEYGWGSSFHFSRFYKGESFAASIARHEHYLAYKAGIQRGDLVLDVGCGVGGPAREIARFTGCNVIGLNNNDYQIAKAKYYAKKYNLSDQMDFVKGDFMKMDFEENTFDKVYAIEATCHAPKLEGVYSEIYKVLKPGGTFAVYEWVMTDKYDENNPEHRKIAYEIELGDGIPKMFHVDVARKALKNCGFEVLVSEDLADNDDEIPWYYPLTGEWKYVQNLANLATFFRTSYLGRQFTTAMVTVMEKLGLAPEGSKEVTAALENAAVGLVAGGKSKLFTPMMLFVARKPENAETPSQTSQEATQ
MSLSQAVSSPLYAAIDLGSNSFHMLVVRHIDGSVQTMAKIKRKVRLAAGLDEHNALSLDAMQRGWDCLSLFAERLQDIPAENIRIVGTATLRTATNAGEFIAKANQILGHPIDVISGEEEAATIYKGVAHTSGGLGRRLVVDIGGASTELIIGEGFEAKALTSLKMGCVTWLERHFKDRQLTATNFNNAILAAKQMLDPILTQYTELGWNVCVGASGTVQALQEIMLAQGMDEVITLTKLKRLQKQAMLADHLEELDIEGLTLERALVFPSGLSILIAIFESLNIEAMTLAGGALREGLVYEMVQDLRQEDIRARTIRCVQTRYQIDSAYGDQVATLASKLLAQCGGEAWINEPQAEMLLRTAAKLHEIGLTIDFKKGGEHSAYLLQHLDLPGYTRAQKHYLGEIVRRYREQLTSLPEQYALSGTSGKRVLRLLRLAVLLSHRRSPALEPMVELSAQEDKLTLTLDGEWLAKNPLTRTELELEANRQTDIGWPLSIECHEGGSHHHHHH
MSLSSYTVLAVDDSEINLKLIVHTLQPFGFQIFTAESAADARNVLLTNRVDVLLLDVSMPDQDGFSFCRELREIERFKLLPILFITGINREVGFDEAISHGGDDFIQKPFQPKELIAKIRAFIRIKILQDELLEQKKNYERELIMARKVQQELLPEKELEWNGVSLSTIFQPLMQIGGDYTDAWIEDDSLHIFIADCSGHGPSAALLAAMLKMQVSSLSPDQSLQEKVQTLRHNLEKILPDEFSITFFYGILHKDLSFEYSNGGHPAPMLYQNGEVSILPGMGPLIIPIEINVKEEFKSVQLQKDSYMLLYTDGATEISDKSMNILGEDKLKKIFQESVSIGGDILVSMMESILAHSDRGTNDDDIAMMVLKLEGHHHHHH
SLVIIYDGDSYGISKRIDYMLNSTTSSGKRTGILAIGAHPDDIELGCGASLSYYSNEKVYIISVVMTPGCCGAEYIDRHKESQEALNMLGCNKLIPLNFEDTRLYLQIKEMISSLEYIIENETPQDVEITRVYTMNNTDRHQDHIAVYQASMVACRYIPQILGYETPSTCLSFLPQVFESVDEVHFNKKILALQKHKSQIHRRYIQPEYIIAQAKFRGQQVSHSMCEGFVVHKMVL
AHHHHHHGSIDDLVERMRKGDRRAVARLITLVENDEKKAREIIKRIYPLTGNAYIVGITGPPGSGKSTLVDKLVKEARKEGLIVGVIAVDPTSPFTGGALLGDRIRMQDHATDPGVFIRSMATRGSLGGLAKATNDAIKILDAYGCDIIFVETVGVGQVEVDIVKTADTVVLVTVPGLGDDIQAIKAGLMEIADIFVLNKADREGADATYFELSLTLDLESEKWEKLGWRPPIVETVATLGKGIKELWEQIKRHREFLEKSGKLEEKKRLRVEEEIKTIVSDMIAKKVEVSIKAGNLEDILEKVMKKELDPYSAASLIMEKIIGGGKSV

Reference: the DeepSol protein solubility set
